Assay results as given in paper PMC13544220, “Glycemic and bodyweight effects of GIPR coding variation reflect differences in surface expression and intrinsic functional impairment” (Science Advances, 2026).

Columns and labels:
Type in all cases: cell-based, human
[1] = system: wild-type and variant SNAP-GIPR; experiment: Surface SNAP-GIPR expression (SNAP-tag labelling) in AD293 cells; conditions: for AD293 Surface: Fig S3E, mean; for Surface SNAP-GIPR expression: sheet Fig 1C;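 for all read-outs here: scaled to the experimental average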
Summary of the method: (§1)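 Surface GIPR is quantified from wide-field images after labelling intact transfected cells with a membrane-impermeant SNAP probe at 500 nM for 10 min at room temperature. Specific signal, corrected for nontransfected cells, is normalized to the experiment-wide average or to wild-type.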

[2] = system: wild-type and variant SNAP-GIPR; experiment: Surface SNAP-GIPR expression (SNAP-tag labelling) in INS-1 cells; conditions: Fig 4G; Mean
Summary of the method: as §1

[3] = system: wild-type and variant SNAP-GIPR; experiment: Single-concentration GIP cAMP response by HTRF in AD293 cells; conditions: Fig S3F, HTRF, mean;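 note: ratio to experiment-wide average response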
Method: (§2) All variants were tested in parallel on each occasion to control for transfection efficiency differences between experiments.

[4] = system: wild-type and variant SNAP-GIPR; experiment: Single-concentration GIP cAMP response by HTRF in INS-1 cells; conditions: Fig S3E, mean
Method: as §2

[5] = system: wild-type and variant SNAP-GIPR; experiment: cADDis cAMP imaging in AD293 cells, ensemble, expression-matched and per decile; conditions: Fig S3F, cADDis, mean
Summary of the method: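 Per-cell cAMP from cADDis intensity over time, with cells excluded by IBMX/FSK response criteria. Expression matching used wild-type surface-SNAP deciles, top and bottom trimmed, mean of decile means. Ensemble values ignore deciles. Wide-field imaging at 37 °C in KRBH with 6 mM glucose, 0.1% BSA, 24 h post-transfection in AD293.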

[6] = system: wild-type and variant SNAP-GIPR; experiment: Constitutive and agonist-mediated internalization, reversible SNAP-tag labelling, AD293 cells; parameters: key to Internalisation, Vehicle / Internalisation, +GIP / Internalisation, GIP-only: % internalization: residual fluorescence after Mesna vs pre-Mesna; Surface expression: unit not given here; conditions: Mean; for +GIP internalisation (100 nM) / GIP-specific internalisation (100 nM) / Constitutive internalisation (100 nM) / Surface expression: Fig 4E; for +GIP internalisation (100 nM) / GIP-specific internalisation (100 nM): GIP 100 nM; for Internalisation, +GIP / Internalisation, GIP-only / Internalisation, Vehicle: Fig S4C, AD293
Summary of the method: (§3)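 % internalization = residual specific fluorescence after Mesna / pre-Mesna value. Imaging in TNE buffer pH 8.6; second image 10 min post-Mesna.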

[7] = system: wild-type and variant SNAP-GIPR; experiment: Constitutive and agonist-mediated internalization, reversible SNAP-tag labelling, INS-1 cells; parameters: key to Internalisation, GIP-only / Internalisation, Vehicle / Internalisation, +GIP: % internalization: residual fluorescence after Mesna vs pre-Mesna; conditions: Mean; for +GIP internalisation (100 nM) / GIP-specific internalisation (100 nM) / Constitutive internalisation (100 nM): Fig 4G; for +GIP internalisation (100 nM) / GIP-specific internalisation (100 nM): GIP 100 nM; for Internalisation, +GIP / Internalisation, GIP-only / Internalisation, Vehicle: Fig S4C, INS-1
Summary of the method: as §3

[8] = column repeated, paired with cAMP 100 nM

B1: R217L (protein, UniProt P48546 22-466, looked up, variant R217L)
Gastric inhibitory …: RAETGSKGQTAGELYQRWERYRRECQETLAAAEPPSGLACNGSFDMYVCWDYAAPNATARASCPWYLPWHHHVAAGFVLRQCGSDGQWGLWRDHTQCENPEKNEAFLDQRLILERLQVMYTVGYSLSLATLLLALLILSLFRRLHCTRNYIHINLFTSFMLRAAAILSRDRLLPRPGPYLGDQALALWNQALAACLTAQIVTQYCVGANYTWLLVEGVYLHSLLVLVGGSEEGHFRYYLLLGWGAPALFVIPWVIVRYLYENTQCWERNEVKAIWWIIRTPILMTILINFLIFIRILGILLSKLRTRQMRCRDYRLRLARSTLTLVPLLGVHEVVFAPVTEEQARGALRFAKLGFEIFLSSFQGFLVSVLYCFINKEVQSEIRRGWHHCRLRRSLGEEQRQLPERAFRALPSGSGPGEVPTSRGLSSGTLPGPGNEASRELESYC
[1]; [8]
  AD293 Surface: 0.4259
[1]; paired with cAMP 100 pM
  AD293 Surface: 0.4259
[1]; replicate 1
  Surface SNAP-GIPR expression: 0.4201
[1]; replicate 2
  Surface SNAP-GIPR expression: 0.7236
[1]; replicate 3
  Surface SNAP-GIPR expression: 0.824
[1]; replicate 4
  Surface SNAP-GIPR expression: 0.3234
[1]; replicate 5
  Surface SNAP-GIPR expression: 0.3781
[1]; replicate 6
  Surface SNAP-GIPR expression: 0.5304
[1]; replicate 7
  Surface SNAP-GIPR expression: 0.6162
[1]; replicate 8
  Surface SNAP-GIPR expression: 0.6634
[1]; replicate 9
  Surface SNAP-GIPR expression: 0.3807
[1]; replicate 10
  Surface SNAP-GIPR expression: 0.4129
[1]; replicate 11
  Surface SNAP-GIPR expression: 0.358
[1]; replicate 12
  Surface SNAP-GIPR expression: 0.3678
[1]; replicate 13
  Surface SNAP-GIPR expression: 0.04028
[1]; replicate 14
  Surface SNAP-GIPR expression: 0.3517
[1]; replicate 15
  Surface SNAP-GIPR expression: 0.3652
[1]; replicate 16
  Surface SNAP-GIPR expression: 0.3999
[1]; replicate 17
  Surface SNAP-GIPR expression: 0.3288
[1]; replicate 18
  Surface SNAP-GIPR expression: 0.3912
[1]; replicate 19
  Surface SNAP-GIPR expression: 0.3034
[1]; replicate 20
  Surface SNAP-GIPR expression: 0.3764
[1]; replicate 21
  Surface SNAP-GIPR expression: 0.4615
[1]; replicate 22
  Surface SNAP-GIPR expression: 0.364
[1]; replicate 23
  Surface SNAP-GIPR expression: 0.3963
[1]; replicate 24
  Surface SNAP-GIPR expression: 0.3543
[1]; replicate 25
  Surface SNAP-GIPR expression: 0.4738
[1]; replicate 26
  Surface SNAP-GIPR expression: 0.4835
[1]; replicate 27
  Surface SNAP-GIPR expression: 0.4338
[1]; replicate 28
  Surface SNAP-GIPR expression: 0.5117
[1]; replicate 29
  Surface SNAP-GIPR expression: 0.4222
[1]; replicate 30
  Surface SNAP-GIPR expression: 0.4733
[1]; replicate 31
  Surface SNAP-GIPR expression: 0.4841
[1]; replicate 32
  Surface SNAP-GIPR expression: 0.4011
[1]; replicate 33
  Surface SNAP-GIPR expression: 0.4465
[1]; replicate 34
  Surface SNAP-GIPR expression: 0.4033
[1]; replicate 35
  Surface SNAP-GIPR expression: 0.2194
[1]; replicate 36
  Surface SNAP-GIPR expression: 0.2502
[1]; replicate 37
  Surface SNAP-GIPR expression: 0.3794
[1]; replicate 38
  Surface SNAP-GIPR expression: 0.4678
[1]; replicate 39
  Surface SNAP-GIPR expression: 0.4904
[1]; replicate 40
  Surface SNAP-GIPR expression: 0.4789
[1]; replicate 41
  Surface SNAP-GIPR expression: 0.5101
[2]
  Surface expression: 0.4654
[3]
  AD293 100 pM HTRF: 0.09215
  AD293 100 nM HTRF: 1.142
[4]
  INS-1 cAMP (100 nM): 1.196
[5]
  AD293 100 pM cADDis: 17.6282
  AD293 100 nM cADDis: 34.7
[6]
  +GIP internalisation (100 nM): 0.224
  GIP-specific internalisation (100 nM): 0.04046
  Constitutive internalisation (100 nM): 0.1836
  Surface expression: 0.4265
  Internalisation, +GIP: 55.082
  Internalisation, GIP-only: 10.4684
  Internalisation, Vehicle: 44.6136
[7]
  +GIP internalisation (100 nM): 0.2239
  GIP-specific internalisation (100 nM): 0.03772
  Constitutive internalisation (100 nM): 0.1862
  Internalisation, +GIP: 51.715
  Internalisation, GIP-only: 8.862
  Internalisation, Vehicle: 42.8533

B2: L262H (protein, UniProt P48546 22-466, looked up, variant L262H)
Gastric inhibitory …: RAETGSKGQTAGELYQRWERYRRECQETLAAAEPPSGLACNGSFDMYVCWDYAAPNATARASCPWYLPWHHHVAAGFVLRQCGSDGQWGLWRDHTQCENPEKNEAFLDQRLILERLQVMYTVGYSLSLATLLLALLILSLFRRLHCTRNYIHINLFTSFMLRAAAILSRDRLLPRPGPYLGDQALALWNQALAACRTAQIVTQYCVGANYTWLLVEGVYLHSLLVLVGGSEEGHFRYYLLHGWGAPALFVIPWVIVRYLYENTQCWERNEVKAIWWIIRTPILMTILINFLIFIRILGILLSKLRTRQMRCRDYRLRLARSTLTLVPLLGVHEVVFAPVTEEQARGALRFAKLGFEIFLSSFQGFLVSVLYCFINKEVQSEIRRGWHHCRLRRSLGEEQRQLPERAFRALPSGSGPGEVPTSRGLSSGTLPGPGNEASRELESYC
[1]; [8]
  AD293 Surface: 0.4082
[1]; paired with cAMP 100 pM
  AD293 Surface: 0.4082
[1]; replicate 1
  Surface SNAP-GIPR expression: 0.05586
[1]; replicate 2
  Surface SNAP-GIPR expression: 0.3975
[1]; replicate 3
  Surface SNAP-GIPR expression: 0.3851
[1]; replicate 4
  Surface SNAP-GIPR expression: 0.346
[1]; replicate 5
  Surface SNAP-GIPR expression: 0.2997
[1]; replicate 6
  Surface SNAP-GIPR expression: 0.4709
[1]; replicate 7
  Surface SNAP-GIPR expression: 0.6801
[1]; replicate 8
  Surface SNAP-GIPR expression: 0.6962
[1]; replicate 9
  Surface SNAP-GIPR expression: 0.3552
[1]; replicate 10
  Surface SNAP-GIPR expression: 0.4769
[1]; replicate 11
  Surface SNAP-GIPR expression: 0.4805
[1]; replicate 12
  Surface SNAP-GIPR expression: 0.4059
[1]; replicate 13
  Surface SNAP-GIPR expression: 0.3345
[1]; replicate 14
  Surface SNAP-GIPR expression: 0.4406
[1]; replicate 15
  Surface SNAP-GIPR expression: 0.3425
[1]; replicate 16
  Surface SNAP-GIPR expression: 0.4438
[1]; replicate 17
  Surface SNAP-GIPR expression: 0.4347
[1]; replicate 18
  Surface SNAP-GIPR expression: 0.4011
[1]; replicate 19
  Surface SNAP-GIPR expression: 0.3575
[1]; replicate 20
  Surface SNAP-GIPR expression: 0.2679
[1]; replicate 21
  Surface SNAP-GIPR expression: 0.3532
[1]; replicate 22
  Surface SNAP-GIPR expression: 0.4093
[1]; replicate 23
  Surface SNAP-GIPR expression: 0.4836
[1]; replicate 24
  Surface SNAP-GIPR expression: 0.3698
[1]; replicate 25
  Surface SNAP-GIPR expression: 0.4044
[1]; replicate 26
  Surface SNAP-GIPR expression: 0.4747
[1]; replicate 27
  Surface SNAP-GIPR expression: 0.4781
[1]; replicate 28
  Surface SNAP-GIPR expression: 0.4405
[1]; replicate 29
  Surface SNAP-GIPR expression: 0.3368
[1]; replicate 30
  Surface SNAP-GIPR expression: 0.4516
[1]; replicate 31
  Surface SNAP-GIPR expression: 0.3843
[1]; replicate 32
  Surface SNAP-GIPR expression: 0.4196
[1]; replicate 33
  Surface SNAP-GIPR expression: 0.4081
[1]; replicate 34
  Surface SNAP-GIPR expression: 0.4658
[1]; replicate 35
  Surface SNAP-GIPR expression: 0.5726
[1]; replicate 36
  Surface SNAP-GIPR expression: 0.3172
[1]; replicate 37
  Surface SNAP-GIPR expression: 0.2985
[1]; replicate 38
  Surface SNAP-GIPR expression: 0.4456
[1]; replicate 39
  Surface SNAP-GIPR expression: 0.3825
[1]; replicate 40
  Surface SNAP-GIPR expression: 0.3992
[1]; replicate 41
  Surface SNAP-GIPR expression: 0.3665
[2]
  Surface expression: 0.4629
[3]
  AD293 100 pM HTRF: 0.1729
  AD293 100 nM HTRF: 1.14
[4]
  INS-1 cAMP (100 nM): 0.9739
[5]
  AD293 100 pM cADDis: 18.6863
  AD293 100 nM cADDis: 34.26
[6]
  +GIP internalisation (100 nM): 0.2171
  GIP-specific internalisation (100 nM): 0.04083
  Constitutive internalisation (100 nM): 0.1763
  Surface expression: 0.3728
  Internalisation, +GIP: 58.197
  Internalisation, GIP-only: 10.9885
  Internalisation, Vehicle: 47.2085
[7]
  +GIP internalisation (100 nM): 0.2099
  GIP-specific internalisation (100 nM): 0.0574
  Constitutive internalisation (100 nM): 0.1525
  Internalisation, +GIP: 50.32
  Internalisation, GIP-only: 13.8767
  Internalisation, Vehicle: 36.4433
